Laboratory results: patent US20120213786A1 (ONCOMED PHARMACEUTICALS, published 2012)

B1: murine monoclonal antibody 52M51 (antibody, mouse IgG1, V domains shown)
VH: QVQLQQSGAELMKPGASVKISCKAAGYTMRGYWIEWIKQRPGHGLEWIGQILPGTGRTNYNEKFKGKATFTADTSSNTANMQLSSLTSEDSAVYYCARFDGNYGYYAMDYWGQGSSVTVSS
VL: QAVVTQESALTTSPGETVTLTCRSSTGAVTTSNYANWVQEKPDHLFTGLIGGTNNRAPGVPARFSGSLIGDKAALTITGAQTEDEAIYFCALWYSNHWVFGGGTKLTVLG
notes: Hybridoma-derived mouse antibody; also called anti-Notch1 antibody 52M51; ATCC PTA-9405
B2: humanized antibody 52M51H4L3 (antibody, human IgG2, lambda, V domains shown)
VH: QVQLVQSGAEVKKPGASVKISCKVSGYTLRGYWIEWVRQAPGKGLEWIGQILPGTGRTNYNEKFKGRVTMTADTSTDTAYMELSSLRSEDTAVYYCARFDGNYGYYAMDYWGQGTTVTVSS
VL: SQAVVTQEPSLTVSPGGTVTLTCRSSTGAVTTSNYANWFQQKPGQAPRTLIGGTNNRAPGVPARFSGSLLGGKAALTLSGAQPEDEAEYYCALWYSNHWVFGGGTKLTVLG
notes: Heavy chain 52M51-H4 (human IgG2 constant region) with light chain 52M51 L3 (human IgLC1 constant region); also called humanized variant of 52M51; ATCC PTA-9549
B3: humanized antibody 52M51H4L4 (antibody, human IgG2, lambda, V domains shown)
VH: B2 VH
VL: SQTVVTQEPSFSVSPGGTVTLTCRSSTGAVTTSNYANWYQQTPGQAPRTLIGGTNNRAPGVPDRFSGSILGNKAALTITGAQADDESDYYCALWYSNHWVFGGGTKLTVLG
notes: Heavy chain 52M51-H4 (human IgG2 constant region) with light chain 52M51 L4 (human IgLC1 constant region)

target: T1, recombinant human Notch1 protein (human, UniProt P46531 1426-1731, limits assumed); assay: SPR (Biacore 2000), recombinant human Notch1 amine-coupled to CM5 chip, antibody injected, global fit
T1 construct: also called antigen
T1 sequence (looked up): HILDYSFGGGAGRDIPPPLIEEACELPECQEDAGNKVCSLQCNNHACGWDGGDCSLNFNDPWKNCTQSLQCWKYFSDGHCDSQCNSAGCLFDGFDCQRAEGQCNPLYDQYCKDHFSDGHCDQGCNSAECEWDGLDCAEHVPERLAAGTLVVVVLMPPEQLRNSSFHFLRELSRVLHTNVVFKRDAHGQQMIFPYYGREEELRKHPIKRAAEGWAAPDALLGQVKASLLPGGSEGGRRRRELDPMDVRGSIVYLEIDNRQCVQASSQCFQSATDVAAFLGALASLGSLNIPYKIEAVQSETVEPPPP
Description: The affinities for human and mouse Notch1 were determined using a Biacore 2000 instrument. Briefly, recombinant human and mouse Notch1 proteins were immobilized on a CM5 chip using standard amine based chemistry (NHS/EDC). Different antibody concentrations were injected over the protein surfaces and kinetic data were collected over time. The data was fit using the simultaneous global fit equation to yield dissociation constants (KD, nM) for each Notch1 (Table 2).

Row | Binder | Kd [nM]
1 | B1 | 2.86
2 | B2 | 4.33
3 | B3 | 7.35
